The values below come from paper PMC2774812 (Journal of molecular biology, 2009).

B1: brome mosaic virus (BMV) capsid protein, wild type (natural protein)
chain: STSGTGKMTRAQRRAAARRNRWTARVQPVIVEPLAAGQGKAIKAIAGYSISKWEASSDAITAKATNAMSITLPHELSSEKNKELKVGRVLLWLGLLPSVAGRIKACVAEKQAQAEAAFQVALAVADSSKEVVAAMYTDAFRGATLGDLLNLQIYLYASEAVPAKAVVVHLEVEHVRPTFDDFFTPVYR
B2: brome mosaic virus (BMV) capsid protein D148A (natural protein)
chain: STSGTGKMTRAQRRAAARRNRWTARVQPVIVEPLAAGQGKAIKAIAGYSISKWEASSDAITAKATNAMSITLPHELSSEKNKELKVGRVLLWLGLLPSVAGRIKACVAEKQAQAEAAFQVALAVADSSKEVVAAMYTDAFRGATLGALLNLQIYLYASEAVPAKAVVVHLEVEHVRPTFDDFFTPVYR
B3: brome mosaic virus (BMV) capsid protein R142A (natural protein)
chain: STSGTGKMTRAQRRAAARRNRWTARVQPVIVEPLAAGQGKAIKAIAGYSISKWEASSDAITAKATNAMSITLPHELSSEKNKELKVGRVLLWLGLLPSVAGRIKACVAEKQAQAEAAFQVALAVADSSKEVVAAMYTDAFAGATLGDLLNLQIYLYASEAVPAKAVVVHLEVEHVRPTFDDFFTPVYR

The data set deals with the molecule itself.
On to B1, for which the binding result is listed as “binds”.

As to B2, the binding result is reported as “binds”.

In the case of B3, the binding result is “binds”.
